Results from paper PMC10240976 (Autophagy, 2022).

Assays:
mRFP-GABARAPL1 [1] = biological target: T1, mRFP-GABARAPL1 (UniProt Q9H0R8 1-117); assay: recruitment of LIR-GFP or gProbe; set-up: unit not given here; conditions: partners not purified
T1 construct: also called membrane-anchored GABARAPL1

LC3A (purified, for ITC) = assay: ITC; conditions: both partners purified
mRFP-GABARAPL1 [2] = biological target: T1, mRFP-GABARAPL1; assay: recruitment of LIR-GFP or gProbe to mRFP-mATG8-containing autophagic membranes (A:C ratio), microscopy; LIR(X)-GFP or gProbe-X co-expressed with one mRFP-mATG8 in HKO HeLa cells; 100 nM BafA1 in EBSS for 2 h; fixed in 4% PFA; autophagosome:cytosol GFP ratio normalized to GFP-expressing cells; conditions: partners not purified

T1 sequence (Q9H0R8 whole entry): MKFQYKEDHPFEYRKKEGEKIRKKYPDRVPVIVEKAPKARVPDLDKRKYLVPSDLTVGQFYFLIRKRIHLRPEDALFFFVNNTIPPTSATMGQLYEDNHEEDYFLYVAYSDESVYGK

Row | Binder | other (mRFP-GABARAPL1 [1]) | other results
1 | LRAKRPSSEDFVFL (domain or fragment, source: HKO HeLa cells, transfected, in cells; not shown: GFP, C-terminal, kept) [LIR(ATG4D)-GFP] | 2.65 | –
2 | SKDSSCDTDDFVMVPAQFPGDLVAE (domain or fragment, source: HKO HeLa cells, transfected, in cells; not shown: GFP, C-terminal, kept) [LIR(ULK1)-GFP] | 1.58 | –
3 | ERFFDSEDEDFEILSL (domain or fragment, also called ATG4B (4B); source: HKO HeLa cells, transfected, in cells; not shown: GFP, C-terminal, kept) [LIR(4B)-GFP] | 2.19 | –
4 | KQLKRFSTEEFVLL (domain or fragment, source: HKO HeLa cells, transfected, in cells; not shown: GFP, C-terminal, kept) [LIR(ATG4C)-GFP] | 2.93 | –
5 | FALEETLESDWVAVRPHVFDEREKH (domain or fragment, source: HKO HeLa cells, transfected, in cells; not shown: GFP, C-terminal, kept) [LIR(JMY)-GFP] | 1.46 | –
6 | NSQDRVDHEEWEMVPRHSSWGDVGV (domain or fragment, also called STBD1 (St); source: HKO HeLa cells, transfected, in cells; not shown: GFP, C-terminal, kept) [LIR(St)-GFP] | 5.08 | –
7 | DGTLIIDLPDSY (also called TP53INP2 peptide; source: synthetic peptide (Cosmo Bio), purified by SEC) [LIR(TP[T]) peptide] | – | Kd (LC3A (purified, for ITC)): > 132 µM
8 | QEQSEVDHGDFEMVSESMVLETAEN (domain or fragment, source: HKO HeLa cells, transfected, in cells; not shown: GFP, C-terminal, kept) [LIR(UBR4)-GFP] | 2.81 | –
9 | PSEDSPLLEDWDIISPKDVIGSDVL (domain or fragment, source: HKO HeLa cells, transfected, in cells; not shown: GFP, C-terminal, kept) [LIR(TBC1D25)-GFP] | 1.41 | –
10 | GMQEESLQGSWVELHFSNNGNGGSV (domain or fragment, source: HKO HeLa cells, transfected, in cells; not shown: GFP, C-terminal, kept) [LIR(BNIP3)-GFP] | – | normalized A:C ratio (mRFP-GABARAPL1 [2]): 1.45
11 | SKNSSCDTDDFVLVPHNISSDHSCD (domain or fragment, source: HKO HeLa cells, transfected, in cells; not shown: GFP, C-terminal, kept) [LIR(ULK2)-GFP] | 2.5 | –
12 | QLEEFDLEEDFEILSV (domain or fragment, source: HKO HeLa cells, transfected, in cells; not shown: GFP, C-terminal, kept) [LIR(ATG4A)-GFP] | 2.18 | –
13 | PQDYESDDDSYEVLDLTEYARRHQW (domain or fragment, source: HKO HeLa cells, transfected, in cells; not shown: GFP, C-terminal, kept) [LIR(FUNDC1)-GFP] | – | normalized A:C ratio (mRFP-GABARAPL1 [2]): 1.96
14 | PEFNEKEDDEWILVDFIDTCTGFSA (domain or fragment, source: HKO HeLa cells, transfected, in cells; not shown: GFP, C-terminal, kept) [LIR(TP53INP1)-GFP] | 2.43 | –
15 | QKVRPQQEDEWVNVQYPDQPEEPPE (domain or fragment, source: HKO HeLa cells, transfected, in cells; not shown: GFP, C-terminal, kept) [LIR(PLEKHM1)-GFP] | 1.86 | –
16 | FVSEEDEVDGWLIIDLPDSYAAPPS (domain or fragment, also called TP53INP2 (TP); source: HKO HeLa cells, transfected, in cells; not shown: GFP, C-terminal, kept) [LIR(TP)-GFP] | 5 | –
17 | DQLSLDEKDGFIFVNYSEGQTRAHL (domain or fragment, source: HKO HeLa cells, transfected, in cells; not shown: GFP, C-terminal, kept) [LIR(WDFY3/ALFY)-GFP] | 3.06 | –
